In article PMC7192624, “A Snu114–GTP–Prp8 module forms a relay station for efficient splicing in yeast” (Nucleic Acids Research, 2020):
Positions count from the first letter of the chain named. Names may count otherwise.

B1: Prp8^SBR 402–406_5S (domain or fragment, yeast, UniProt P33334 315-555, looked up)
chain: STPLRDEVTDKNYYYLFDKKSFFNGKALNNAIPGGPKFEPLYPREEEEDYNEFNSIDRVIFRVPIRSEYKVAFPHLYNSRPRSVRIPSSSSSVSCIIQNDEEYDTPALFFDPSLNPIPHFIDNNSSLNVSNTKENGDFTLPEDFAPLLAEEEELILPNTKDAMSLYHSPFPFNRTKGKMVRAQDVALAKKWFLQHPDEEYPVKVKVSYQKLLKNYVLNELHPTLPTNHNKTKLLKSLKNTK
notes: also called Prp8^402–406_5S; source: insect cells, co-produced with Snu114; complex purified; not shown: Strep tag (from the vector pFL-N-Strep), N-terminal, kept
B2: Prp8^SBR WY402-403AA (domain or fragment)
chain: not shown
notes: also called Prp8^WY402/3AA; source: insect cells, co-produced with Snu114; complex purified; not shown: Strep tag (from the vector pFL-N-Strep), N-terminal, kept
B3: Prp8^SBR Y403A (domain or fragment, yeast, UniProt P33334 315-555, looked up)
chain: B1 chain with S88W, S89A, S90N, S91N, S92P
notes: also called Prp8^Y403A; source: insect cells, co-produced with Snu114; complex purified; not shown: Strep tag (from the vector pFL-N-Strep), N-terminal, kept
B4: Prp8^SBR Y403F (domain or fragment, yeast, UniProt P33334 315-555, looked up)
chain: B1 chain with S88W, S89F, S90N, S91N, S92P
notes: also called Prp8^Y403F; source: insect cells, co-produced with Snu114; complex purified; not shown: Strep tag (from the vector pFL-N-Strep), N-terminal, kept
B5: Prp8^SBR Δ402–406 (domain or fragment, yeast, UniProt P33334 315-555, looked up)
chain: STPLRDEVTDKNYYYLFDKKSFFNGKALNNAIPGGPKFEPLYPREEEEDYNEFNSIDRVIFRVPIRSEYKVAFPHLYNSRPRSVRIPVSCIIQNDEEYDTPALFFDPSLNPIPHFIDNNSSLNVSNTKENGDFTLPEDFAPLLAEEEELILPNTKDAMSLYHSPFPFNRTKGKMVRAQDVALAKKWFLQHPDEEYPVKVKVSYQKLLKNYVLNELHPTLPTNHNKTKLLKSLKNTK
notes: also called Prp8^Δ402–406; source: insect cells, co-produced with Snu114; complex purified; not shown: Strep tag (from the vector pFL-N-Strep), N-terminal, kept
B6: Prp8^SBR Δ421–468 (domain or fragment, yeast, UniProt P33334 315-555, looked up)
chain: STPLRDEVTDKNYYYLFDKKSFFNGKALNNAIPGGPKFEPLYPREEEEDYNEFNSIDRVIFRVPIRSEYKVAFPHLYNSRPRSVRIPWYNNPVSCIIQNDEEYDTPILPNTKDAMSLYHSPFPFNRTKGKMVRAQDVALAKKWFLQHPDEEYPVKVKVSYQKLLKNYVLNELHPTLPTNHNKTKLLKSLKNTK
notes: also called Prp8^Δ421–468; source: insect cells, co-produced with Snu114; complex purified; not shown: Strep tag (from the vector pFL-N-Strep), N-terminal, kept
B7: Prp8 residues 315-555 (Prp8^SBR), chymotryptic fragment (domain or fragment, yeast, UniProt P33334 315-555, looked up)
chain: B1 chain with S88W, S89Y, S90N, S91N, S92P
B8: Snu114^72-1008 (yeast Snu114 lacking the acidic N-terminal region) (domain or fragment, UniProt P36048 72-1008, looked up)
chain: KEVEVLMETKNTQSPQTPLVEPVTERTKLQEHTIFTQLKKNIPKTRYNRDYMLSMANIPERIINVGVIGPLHSGKTSLMDLLVIDSHKRIPDMSKNVELGWKPLRYLDNLKQEIDRGLSIKLNGSTLLCTDLESKSRMINFLDAPGHVNFMDETAVALAASDLVLIVIDVVEGVTFVVEQLIKQSIKNNVAMCFVINKLDRLILDLKLPPMDAYLKLNHIIANINSFTKGNVFSPIDNNIIFASTKLGFTFTIKEFVSYYYAHSIPSSKIDDFTTRLWGSVYYHKGNFRTKPFENVEKYPTFVEFILIPLYKIFSYALSMEKDKLKNLLRSNFRVNLSQEALQYDPQPFLKHVLQLIFRQQTGLVDAITRCYQPFELFDNKTAHLSIPGKSTPEGTLWAHVLKTVDYGGAEWSLVRIYSGLLKRGDTVRILDTSQSESRQKRQLHDISKTETSNEDEDEDDETPSCEVEEIGLLGGRYVYPVHEAHKGQIVLIKGISSAYIKSATLYSVKSKEDMKQLKFFKPLDYITEAVFKIVLQPLLPRELPKLLDALNKISKYYPGVIIKVEESGEHVILGNGELYMDCLLYDLRASYAKIEIKISDPLTVFSESCSNESFASIPVSNSISRLGEENLPGLSISVAAEPMDSKMIQDLSRNTLGKGQNCLDIDGIMDNPRKLSKILRTEYGWDSLASRNVWSFYNGNVLINDTLPDEISPELLSKYKEQIIQGFYWAVKEGPLAEEPIYGVQYKLLSISVPSDVNIDVMKSQIIPLMKKACYVGLLTAIPILLEPIYEVDITVHAPLLPIVEELMKKRRGSRIYKTIKVAGTPLLEVRGQVPVIESAGFETDLRLSTNGLGMCQLYFWHKIWRKVPGDVLDKDAFIPKLKPAPINSLSRDFVMKTRRRKGISTGGFMSNDGPTLEKYISAELYAQLRENGLVP
notes: synthetic gene; Co-purifies with endogenous GTP; source: insect cells (MultiBac baculovirus); co-produced with Prp8 constructs or alone; purified (StrepTactin, SEC); not shown: Strep tag (from the vector pIDS-C-Strep), C-terminal, kept
B9: Aar2 (natural protein, yeast, UniProt P32357 1-355, looked up)
chain: MNTVPFTSAPIEVTIGIDQYSFNVKENQPFHGIKDIPIGHVHVIHFQHADNSSMRYGYWFDCRMGNFYIQYDPKDGLYKMMEERDGAKFENIVHNFKERQMMVSYPKIDEDDTWYNLTEFVQMDKIRKIVRKDENQFSYVDSSMTTVQENELLKSSLQKAGSKMEAKNEDDPAHSLNYTVINFKSREAIRPGHEMEDFLDKSYYLNTVMLQGIFKNSSNYFGELQFAFLNAMFFGNYGSSLQWHAMIELICSSATVPKHMLDKLDEILYYQIKTLPEQYSDILLNERVWNICLYSSFQKNSLHNTEKIMENKYPELLGKDNEDDALIYGISDEERDDEDDEHNPTIVGGLYYQRP
notes: Aar2, U5 snRNP assembly factor, yeast; synthetic gene; source: complex purified (StrepTactin, Heparin, Mono Q, SEC); not shown: Strep tag (from the vector pIDK-C-Strep), C-terminal, kept

Each binder was assayed against B8 (assay: SEC; two proteins co-produced in insect cells, both Strep-tagged; StrepTactin capture, then SEC on Superdex S200 in 10 mM TRIS-HCl pH 8.0, 300 mM NaCl, 2 mM DTT; co-purification of wt and variant complexes). Conditions: both partners purified.
B1: binds.
B2: binds.
B3: binds.
B4: binds.
B5: binds.
B6: binds.

Each binder was assayed against B8 (assay: SEC; limited proteolysis of the purified trimeric complex with chymotrypsin (room temperature, 35 min), then SEC on Superose 6 Increase in 20 mM TRIS-HCl pH 8.5, 500 mM NaCl, 2 mM DTT; fragments identified by mass spectrometric fingerprinting and N-terminal sequencing). Conditions: both partners purified.
B7: binds.

What follows are binders tested against T1, Prp8^132-2413 (large fragment of yeast Prp8 lacking the first 131 residues) (yeast, UniProt P33334 132-2413) (assay: SEC; three proteins co-produced in insect cells, all Strep-tagged; complex purified by StrepTactin, Heparin, Mono Q and SEC (Superose 6, 50 mM TRIS-HCl pH 8.5, 300 mM NaCl, 2 mM DTT); analytical gel filtration with SDS-PAGE of fractions). Conditions: both partners purified.
T1 construct: Prp8, yeast, residues 132-2413; synthetic gene; methods and results print 132-2413; source: complex purified (StrepTactin, Heparin, Mono Q, SEC); not shown: Strep tag (from the vector pFL-C-Strep), C-terminal, kept
B8: binds.
B9: binds.
